# Measured values from the RNAGym collection of RNA variant scans (doi:10.1073/pnas.2313332121).
# B1: TPR t1 (parent)
# chain: GACCAAUCUGCCCUCAGAGCUCGAGAACAUCUUCGGAUGCAGAGGAGGCAGGCUUCGGUGGCGCGAUAGCGCCAACGUCCUCAACCUCCAAUGCAUCCCACCACAUGAUGAUGCCUGAAGAGCCUUGGUUUUUUG
# Variants of: B1
# Experiment: polymerase ribozyme fitness, log enrichment relative to wild type (log ratio); higher = more active; in vitro selection for triplet polymerase activity
# Summary of the method: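 Fitness measures genotype enrichment against wild-type enrichment on a logarithmic scale, with inverse-variance-weighted averaging of replicates. The logarithm is base 2, and genotypes were kept only with ≥10 input reads and ≥1 read per output in Illumina sequencing. The sequenced libraries came from one triplicate in vitro selection round, including frozen incubation at −7 °C, of PCR-built, transcribed mutant libraries of each subunit of a heterodimeric triplet polymerase ribozyme.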
row,Variant,polymerase ribozyme fitness (log ratio)
1,A43C G51U C82G A121U,-6.24
2,G42U G61U U92A C94A,-3.57
3,G44A C53U,-2.11
4,A43U G44C G63A,-2.96
5,A43G G63A A121G U129A,-3.06
6,A41U G52A C62U G117U,-5.18
7,A43C U125G,-2.24
8,A43U C49G C72A C86A,-2.29
9,A43G G44U C49G U96A,-2.32
10,G42A A66U C79U,-3.79
11,G44A G51C,-5.22
12,A43C C85A C101A,-5.53
13,G44A A68G,-3.75
14,G44A G51A G63U U125A,-7.95
15,G42A C73U,-1.61
16,G42A A108G A121G,-2.74
17,G42U C49A G77A C123G G135U,-1.82
18,A43G U54C C88U,-1.48
19,G44A G63A,-2.44
20,G42C G71U,-2.39
21,G44A G45U G61U A83C,-1.59

row,Variant,polymerase ribozyme fitness (log ratio)
1,A43U A46G C62G,-4.27
2,G44A C49U G71A G117C U133G,-5.02
3,G44A G113A U130C,-2.43
4,A41U G113A,-1.81
5,G42A U78G U87C C114U,-2.18
6,G42C U112A,-0.562
7,A43C G48C C72G C102G,-7.62
8,A41U G71C,-3.84
9,A43U C56A C85G,-3.95
10,G42U C102A,-5.37
11,A43G A100U,-2.72
12,G42U U106A G120C,-2.14
13,A41U U78C A121G U131G,-0.28
14,A43G C80A C115G,-7.29
15,A43G G60U,-1.12
16,G42U U78C C88A U92A G120A,-1.83
17,G44A G61C U78C C79G U112G,-3.26
18,A43U C114G G117C U126A,-5.06
19,G42A G44U C53A U55A G127C,-3.14
20,G42A G48C C62A A119U C124A,-3.3
21,G42U G47U C123G,-1.61

row,Variant,polymerase ribozyme fitness (log ratio)
1,A43C C56U U78C U125A,-3.15
2,A43U A46G U106A,-2.63
3,A43U C123G,0.036
4,G42A G63A A83U A121U,-3.11
5,A43U G45U C115G,-3.44
6,G42A A50U,-4.57
7,A41U C115U G127A,-3.9
8,G44A G71A A91G U116A G122A C124U,-4.96
9,A41U G63A C86G C101U,-4.01
10,A43G U87G,-0.843
11,A43G C70U G120U G128U,-3.88
12,G42U C56U C86U,-1.14
13,A41U U55G A91U C101G,-4.09
14,A43U C56G C64U,-2.1
15,A43C C114U G122A,-3.24
16,A43U G45A C56G G113A,-0.304
17,G42C A46U,-2.24
18,G42U C124G G135C,0.643
19,A43U G60U C82A G113A G128C,-4.46
20,A43U G47C U92C G93C A121G,-0.371
21,G42A U129A,-3.37

row,Variant,polymerase ribozyme fitness (log ratio)
1,G42C C70A,-4.99
2,G44A A50G C73U,-0.0837
3,A43U U54A G122U,-2.82
4,G42C A43C C115A,-1.55
5,G42C G52A G60U C101U C104A,-5.59
6,G42A A46U G48A G63A A118U,-3.82
7,A43C G63A,-4.15
8,G42C A46C C62U A95G U96G,-4
9,A43G G61A U78C G117U,-4.59
10,G42C G117C,-4.02
11,G42U C62U C64U A84G,-4.19
12,G42U C56A,-3.39
13,A43U C56A,-1.69
14,G44A C56A C89U C97U U116A,-3.63
15,G42U C53A A84C C86U A90U U131G U132C,-1.34
16,G42U C124U,-0.586
17,G42A A43C,-2.41
18,A43G A50C C85U C89A,-3.67
19,A43G G61C,-4.3
20,A43C G61A C85G G113A C115U,-5.36
21,A43G C82G U87C G93U,-6.73
